Substrate in the series “purified protein”: COc1ccccc1O
Nature of the series: purified protein. The settings on record: 50 mM sodium tartrate.

Substrate in series [1]: COc1cccc(OC)c1O
Briefly: peroxidase oxidation, spectrophotometric; nonlinear fit. The settings on record: pH 4, 25 °C, 50 mM sodium tartrate, co-substrate H2O2. The series is classed as biochemical, Irpex lacteus. From the text: (§1) peroxidase oxidation, spectrophotometric; nonlinear fit on IlDyP1

Substrate in series [2]: CCn1c(=NN=c2sc3cc(S(=O)(=O)O)ccc3n2CC)sc2cc(S(=O)(=O)O)ccc21
The series is described as above. It counts as biochemical, Irpex lacteus. The note with it: pH 4, 25 °C, 50 mM sodium tartrate, co-substrate H2O2.
Description: as §1

Substrate in series [3]: COc1cccc(OC)c1O
The series is described as above. The series is classed as biochemical, Irpex lacteus. The settings on record: pH 3, 25 °C, 50 mM sodium tartrate, co-substrate H2O2. From the text:
(§2) peroxidase oxidation, spectrophotometric; nonlinear fit on IlDyP2

Substrate in series [4]: CCn1c(=NN=c2sc3cc(S(=O)(=O)O)ccc3n2CC)sc2cc(S(=O)(=O)O)ccc21
The description is as above. The series is classed as biochemical, Irpex lacteus. The note with it: pH 3, 25 °C, 50 mM sodium tartrate, co-substrate H2O2.
Description: as §2

The mark [5] stands for this setting: pH 4, 25 °C, co-substrate H2O2, pH 4.0.
Where [6] appears, read: pH 3, 25 °C, co-substrate H2O2, pH 3.0.

Results on two proteins are retold here after PMC6223037, “Dye-decolorizing peroxidases in Irpex lacteus combining the catalytic properties of heme peroxidases and laccase play important roles in ligninolytic system” (Biotechnology for Biofuels, 2018).

B1: IlDyP1 (Irpex lacteus) (protein)
chain: YHVKRARTTSLLGSFPGQGALPTVAQVQSTSSGNDSLPLENIQGDILVGMKKQKEQFVFFHINNATTFKKVLKTYAPANITSIQTLLSAPSAQPLAFVNLAFSQSGATALGVTDDLGDSFFSAGQFADASALGDDTSNWDSTFTGTDVHGVFLIGSDETSFVEQYQSDLEAKLGDAWTVSLTIASAARPGDEAGHEHFGYLDGISNPTITGFGTALPGQSVVDPGIILAGRTGDTVSRPSWALDGSFLVFRKLKQLVPEFNKWTLANAIQNASGNLTAQEGADLLGSRMFGRWKSGAPIDLSPDVDDASLGTDPQRNNNFNYTHAGSDITSDESRCPFSAHIRKTNPRDLESVIGHANHAIRAGTPYGPELTDDESSSGTTSTDRGLAFVEYQSNIGNGFRTQQEVWANAAAFPFGKTESIGLDPVIGQGDRTTYGLNAQNVTESYSVPSFVISNGGEYFFSPSITALVETFAA
As to B1, the values for the Michaelis constant (Km) (in the series “purified protein” (setting [5]); in series [1]; in series [2]) were 592.1 ± 53.0 µM, 892.7 ± 81.5 µM and 693.1 ± 8.5 µM, respectively. Also, the kcat (commonly the maximal rate divided by the concentration of active sites) was found to be 49.2 s⁻¹ in the series “purified protein” (setting [5]), 199 ± 12.6 s⁻¹ in series [1] and 356 ± 11.2 s⁻¹ in series [2]. Moreover, the figures for the catalytic efficiency (kcat/Km) (in the series “purified protein” (setting [5]); in series [1]; in series [2]) were 83000 M⁻¹ s⁻¹, 220000 ± 10000 M⁻¹ s⁻¹ and 510000 ± 10000 M⁻¹ s⁻¹, respectively.

B2: IlDyP2 (Irpex lacteus) (protein)
chain: YHVKRARSSPLIGSFPGQPPLPTIAEVQSSSAGNDSLPFENIQGDILVGMKKDKEKFVFFHINNATTFKSFLKTYAPANITSVQTIIGPASGQPQAFVNLAFSHTGFGALGVADDLQDTAFTAGQFADAPSFGDDTSTWEEAFKGTNVDGVFLIGSDDVTTTNQYRDDLKAKLGDAWTVLLDLDSAARPGAEKGHEHFGYLDGISNPTIPGFGTPFPGQAVVDSGVIFAGRTNDPVTNRPSWALDGSFLVFRKLKQLVPEFHKWTLDNALQNQAGNLTVEEGALLLGSRMFGRWNSGAPIDLTPDVDDPTLGNDPQRNNDFNYIHPGEDLTTDETRCPFTAHVRKTNPRDLEAQGLIPDLFHAIRAGTPYGPEVTDAESNSNTTSIDRGLAFVEYQSVISNGFRFQQLNWANNANFPFNKSEPLGLDPVIGQGTRQTFGLDPRNASDSLTIPQIIISNGGEYFFSPSITALVEHFGA
For the protein B2, in the series “purified protein” (setting [6]), the Km (usually the concentration of substrate that gives half-maximal velocity) amounted to 229.1 ± 15.9 µM, the kcat is 49.7 s⁻¹ and the kcat/Km (commonly the second-order rate constant that governs catalysis at low substrate concentration) worked out at 220000 M⁻¹ s⁻¹. Moreover, in series [3], the Km turned out to be 1631.7 ± 10.9 µM, the turnover number (kcat) amounted to 561 ± 19.3 s⁻¹ and the kcat/Km amounted to 340000 ± 20000 M⁻¹ s⁻¹. In addition, in series [4], the Km is 125.0 ± 1.4 µM, the turnover number (kcat) stood at 396 s⁻¹ and the catalytic efficiency (kcat/Km) was 3.2e+06 M⁻¹ s⁻¹.
